Experiments:
human ILT4 on cells [1] = target: T1, human ILT4 on cells (human, UniProt Q8N423 22-597); test: cell-based or functional assay
[2] = target: T2, cynomolgus monkey ILT2 on cells (cynomolgus monkey); test: flow cytometry, fluorescently labelled antibody on CD14+ monocytes of cyno PBMC (2 donors), geometric MFI
T2 construct: also called cyno ILT2; ILT2 on cyno CD14+ monocytes
Procedure: The binding of anti-ILT2/ILT4 antibodies to monocytes was evaluated. The binding of exemplary anti-ILT2/ILT4 antibody 73D1 and the humanized version Hz73D1.v1 to the CD14+ monocyte population of human and cyno PBMC were determined by flow cytometry analysis. Briefly, human or cyno PBMCs (from 2 donors each) were thawed, washed in media (RPMI, 10% FBS, L-glutamine, pen/strep), and resuspended in fresh media. PBMCs were stained with a cocktail of labeled antibodies to differentiate between the different cell types. 1×10⁶ cells/well were stained with fluorescently-labelled 73D1 or Hz73D1.v1 antibody and incubated on ice. The cells were washed with ice-cold reagents and immediately analyzed by flow cytometry. The geometric mean fluorescence intensity for CD14+ monocytes was calculated for each sample. […] For example, the 50% effective concentration (EC₅₀) of Hz73D1.v1 was 8.8 nM with human monocytes and 1.8 nM with cyno monocytes.

soluble human ILT4-ECD [3] = target: T3, soluble human ILT4-ECD (human, UniProt Q8N423 22-460); test: SPR (Biacore), antibody captured on Protein A chip, ILT protein injected, 25 C
T3 construct: also called LILRB2 extracellular domain

soluble human ILT2-ECD [4] = target: T4, soluble human ILT2-ECD (human, UniProt Q8NHL6 24-461); test: as above
T4 construct: also called LILRB1 extracellular domain

soluble human ILT2-ECD [5] = target: T4, soluble human ILT2-ECD; test: Biacore competition: antibody titrated against 20 nM ILT2-ECD, mixture injected over biotinylated HLA-A*1101 on a NeutrAvidin chip; blocked ligand HLA-A*1101
Procedure: (§1) As part of the characterization process, the ability of exemplary antibodies to inhibit or block the interaction of ILT2 or ILT4 with their natural ligands was evaluated in competition experiments using a Biacore system. As described herein, the natural ligands of ILT2 and ILT4 include, but are not limited to, HLA class I molecules, including HLA-A, HLA-B, HLA-C, HLA-E, and HLA-G. Biotinylated HLA-A*1101 was captured in high amounts on a NeutrAvidin chip surface. Antigen-antibody complexes were prepared with (i) ILT2-ECD and anti-ILT2 antibody 27F9, anti-ILT4 antibody 48A5, or anti-ILT2/ILT4 antibody Hz73D1.v1 and (ii) ILT4-ECD and anti-ILT2 antibody 27F9, anti-ILT4 antibody 48A5, or anti-ILT2/ILT4 antibody Hz73D1.v1. The antibody concentration of each antibody was titrated from 0.09-100 nM and the concentration of human ILT2-ECD or ILT4-ECD was kept constant at 20 nM. The complexes were mixed in a 96-well microplate and each was injected onto the HLA-A-coated chip surface. The measured signal (response unit, RU) was plotted against the antibody concentration.

human ILT2 on cells = human ILT2 on cells (human, UniProt Q8NHL6 24-650); test: cell-based or functional assay
human ILT4 on cells [6] = target: T1, human ILT4 on cells; test: cell-based or functional assay; remark: listed apart in the source
soluble human ILT4-ECD [7] = target: T3, soluble human ILT4-ECD; test: SPR (Biacore) as described in Example 3
Procedure: (§2) The binding affinities of anti-ILT2 and anti-ILT4 antibodies were measured using a Biacore system (GE Healthcare LifeSciences). Equilibrium dissociation constant (KD) measurements were carried out with purified antibodies to evaluate their binding to human ILT2, human ILT4, and rhesus ILT2. Briefly, purified anti-ILT2 antibody 27F9, anti-ILT4 antibodies 47C8 and 48A5, and anti-ILT2/ILT4 antibodies 47H6, 51A1, 64A12, 73C4, and 73D1 were captured on a Sensor Chip Protein A (GE HealthCare). The surface of the Biacore Sensor Chip Protein A consists of a carboxymethylated dextran matrix with a recombinant Protein A variant covalently attached. Soluble human ILT2-ECD, human ILT4-ECD, or rhesus ILT2-ECD were injected at a flow rate of 30 μL/min at 25° C. The ILT2 or ILT4 proteins were used at concentrations ranging from 1.6-200 nM in PBS-P buffer with 2 fold dilutions. Kinetic data were collected over time and fit using the simultaneous global fit equation to yield affinity constants (KD values) for each antibody.
(§3) The binding affinities of the humanized antibodies to human ILT2 and human ILT4 were measured using a Biacore system as described herein. The binding affinities of antibodies Hz47H6.v2, Hz64A12, and Hz73D1.v1 are shown in Table 11 as compared with the parental antibodies.

soluble human ILT2-ECD [8] = target: T4, soluble human ILT2-ECD; test: SPR (Biacore) as described in Example 3
Procedure: as §2, §3

soluble human ILT4-ECD [9] = target: T3, soluble human ILT4-ECD; test: Biacore competition: antibody titrated against 20 nM ILT4-ECD, mixture injected over biotinylated HLA-A*1101 on a NeutrAvidin chip; blocked ligand HLA-A*1101
Procedure: as §1

Human ILT4-Fc = Human ILT4-Fc (human, UniProt Q8N423 22-460); test: SPR (Biacore) competition: blocking of human ILT4-Fc binding to HLA-A, 25 C
Procedure: (§4) In addition to the reporter cell system, the inhibitory activity of anti-ILT2/ILT4 antibodies towards the interaction between ILT2 and MHC I molecules, and the interaction between ILT4 and MHC I molecules was evaluated using the Biacore system. Human ILT2-Fc and ILT4-Fc were used as target receptors and their interaction with an exemplary MHC-I molecule (HLA-A) was assayed in the presence or absence of an exemplary anti-ILT2/ILT4 antibody Hz73D1.v1 at 25° C. Anti-human ILT2 (clone 27F9) or ILT4 (clone 48A5) antibodies were used as tool reagents to dissect ILT2- and ILT4-specific blocking activities. Anti-IL2/ILT4 antibodies produced a dose-dependent reduction in the interaction between ILT2 and HLA-A, as well as between ILT4 and HLA-A. IC50s of the antibodies tested are shown in Table 16.

Human ILT2-Fc = Human ILT2-Fc (human, UniProt Q8NHL6 24-461, limits assumed); test: SPR (Biacore) competition: blocking of human ILT2-Fc binding to HLA-A, 25 C
Procedure: as §4

T4 sequence (Q8NHL6 24-461): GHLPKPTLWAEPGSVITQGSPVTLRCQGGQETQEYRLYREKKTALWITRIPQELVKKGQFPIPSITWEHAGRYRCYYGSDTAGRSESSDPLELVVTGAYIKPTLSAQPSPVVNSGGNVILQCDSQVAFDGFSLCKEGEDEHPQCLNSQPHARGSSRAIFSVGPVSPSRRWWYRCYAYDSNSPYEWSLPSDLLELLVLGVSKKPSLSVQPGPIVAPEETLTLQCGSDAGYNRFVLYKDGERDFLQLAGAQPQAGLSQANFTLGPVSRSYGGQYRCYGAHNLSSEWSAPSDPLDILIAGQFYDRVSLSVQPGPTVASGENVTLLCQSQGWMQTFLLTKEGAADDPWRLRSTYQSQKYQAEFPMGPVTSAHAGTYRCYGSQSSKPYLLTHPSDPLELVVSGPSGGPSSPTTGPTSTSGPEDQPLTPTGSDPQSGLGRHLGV
Chain of human ILT2 on cells (Q8NHL6 24-650): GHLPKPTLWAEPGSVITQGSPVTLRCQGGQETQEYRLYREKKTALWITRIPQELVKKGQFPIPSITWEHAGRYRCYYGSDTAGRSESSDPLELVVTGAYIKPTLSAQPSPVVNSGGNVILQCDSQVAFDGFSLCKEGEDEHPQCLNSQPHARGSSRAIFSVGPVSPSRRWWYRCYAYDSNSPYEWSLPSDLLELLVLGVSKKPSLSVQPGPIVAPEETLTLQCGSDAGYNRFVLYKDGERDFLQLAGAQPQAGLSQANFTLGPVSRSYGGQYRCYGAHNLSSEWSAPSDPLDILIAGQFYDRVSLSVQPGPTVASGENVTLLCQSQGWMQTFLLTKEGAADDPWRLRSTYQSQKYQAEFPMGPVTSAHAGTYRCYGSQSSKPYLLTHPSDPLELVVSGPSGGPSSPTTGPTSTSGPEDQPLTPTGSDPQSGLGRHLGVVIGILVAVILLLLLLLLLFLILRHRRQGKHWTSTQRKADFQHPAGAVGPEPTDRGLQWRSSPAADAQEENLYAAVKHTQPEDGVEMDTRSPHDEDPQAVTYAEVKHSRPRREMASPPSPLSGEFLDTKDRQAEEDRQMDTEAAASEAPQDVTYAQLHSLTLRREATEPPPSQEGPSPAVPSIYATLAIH
T3 sequence (Q8N423 other isoform, or with tags, fused parts or gaps): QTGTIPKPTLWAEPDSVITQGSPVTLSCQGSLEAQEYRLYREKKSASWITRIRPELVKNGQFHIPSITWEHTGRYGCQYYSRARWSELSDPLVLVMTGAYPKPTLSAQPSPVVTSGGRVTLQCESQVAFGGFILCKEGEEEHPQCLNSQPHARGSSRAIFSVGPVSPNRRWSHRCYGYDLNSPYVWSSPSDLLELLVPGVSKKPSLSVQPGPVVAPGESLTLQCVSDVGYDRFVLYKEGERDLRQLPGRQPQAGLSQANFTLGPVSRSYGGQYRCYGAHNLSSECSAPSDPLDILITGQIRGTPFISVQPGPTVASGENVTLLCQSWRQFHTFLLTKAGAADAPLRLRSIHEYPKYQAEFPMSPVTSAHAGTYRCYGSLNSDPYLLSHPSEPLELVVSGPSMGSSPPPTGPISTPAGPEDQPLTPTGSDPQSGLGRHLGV
T1 sequence (Q8N423 other isoform, or with tags, fused parts or gaps): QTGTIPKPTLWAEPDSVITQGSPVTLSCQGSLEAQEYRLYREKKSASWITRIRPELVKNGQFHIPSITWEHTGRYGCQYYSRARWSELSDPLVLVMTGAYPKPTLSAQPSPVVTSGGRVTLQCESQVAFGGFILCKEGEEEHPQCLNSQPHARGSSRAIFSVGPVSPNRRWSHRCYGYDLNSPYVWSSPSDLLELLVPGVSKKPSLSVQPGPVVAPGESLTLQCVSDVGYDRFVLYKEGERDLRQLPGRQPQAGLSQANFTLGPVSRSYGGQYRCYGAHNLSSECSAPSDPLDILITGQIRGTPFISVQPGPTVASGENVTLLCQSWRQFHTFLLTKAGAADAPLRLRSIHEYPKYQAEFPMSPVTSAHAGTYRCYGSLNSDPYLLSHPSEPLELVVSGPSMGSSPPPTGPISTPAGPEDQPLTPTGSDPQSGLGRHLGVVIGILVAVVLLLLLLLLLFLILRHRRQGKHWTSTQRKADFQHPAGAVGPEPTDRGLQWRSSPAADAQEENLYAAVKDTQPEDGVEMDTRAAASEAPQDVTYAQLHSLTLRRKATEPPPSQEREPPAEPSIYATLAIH
T2 sequence (chain, as listed by the source): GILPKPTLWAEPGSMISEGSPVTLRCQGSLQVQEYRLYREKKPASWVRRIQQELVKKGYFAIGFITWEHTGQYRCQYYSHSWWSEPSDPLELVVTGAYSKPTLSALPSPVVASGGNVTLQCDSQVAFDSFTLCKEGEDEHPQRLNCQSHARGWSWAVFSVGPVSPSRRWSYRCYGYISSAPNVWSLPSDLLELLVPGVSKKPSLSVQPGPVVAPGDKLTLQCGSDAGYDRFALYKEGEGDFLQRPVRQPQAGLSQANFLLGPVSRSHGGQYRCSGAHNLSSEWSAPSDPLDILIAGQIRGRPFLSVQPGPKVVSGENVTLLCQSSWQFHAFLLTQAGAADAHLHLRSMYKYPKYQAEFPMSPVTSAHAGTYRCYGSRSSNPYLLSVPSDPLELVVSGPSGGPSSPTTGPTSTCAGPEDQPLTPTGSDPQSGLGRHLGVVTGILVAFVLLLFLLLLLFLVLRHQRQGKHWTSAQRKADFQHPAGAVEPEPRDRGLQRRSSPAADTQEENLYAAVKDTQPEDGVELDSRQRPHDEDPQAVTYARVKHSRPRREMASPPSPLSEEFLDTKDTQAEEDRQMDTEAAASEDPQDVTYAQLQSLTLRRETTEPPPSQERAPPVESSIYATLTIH
Chain of Human ILT2-Fc (Q8NHL6 24-461 limits assumed): as the sequence (Q8NHL6 24-461) above

EC50 (nM), TNFalpha secretion of tolerized dendritic cells, LPS + Cyclosporine (human ILT4 on cells [1]): 0.2 nM
EC50 (nM), TNFalpha secretion of tolerized dendritic cells, LPS + IL-6 (human ILT4 on cells [1]): 0.14 nM
EC50 (nM), TNFalpha secretion of tolerized dendritic cells, LPS + IL-10 (human ILT4 on cells [1]): 1.2 nM
EC50 (nM), TNFalpha secretion of tolerized dendritic cells, LPS + PGE2 (human ILT4 on cells [1]): 0.44 nM
EC50 (nM), TNFalpha secretion of tolerized dendritic cells, LPS + Rapamycin (human ILT4 on cells [1]): 0.15 nM
EC50 (nM), TNFalpha secretion of tolerized dendritic cells, LPS + TGFβ (human ILT4 on cells [1]): 0.1 nM
EC50 (nM), TNFalpha secretion of tolerized dendritic cells, LPS + VitD3/Dex (human ILT4 on cells [1]): 0.4 nM
binding result [2]: binds
Kd (soluble human ILT4-ECD [3]): 0.205 nM
koff (soluble human ILT4-ECD [3]): 4.6e-05 s⁻¹
kon (soluble human ILT4-ECD [3]): 220000 M⁻¹ s⁻¹
Kd (soluble human ILT2-ECD [4]): 1.03 nM
koff (soluble human ILT2-ECD [4]): 4.85e-05 s⁻¹
kon (soluble human ILT2-ECD [4]): 47200 M⁻¹ s⁻¹
IC50 (read off the curve) (soluble human ILT2-ECD [5]): ~9 nM
EC50, NKL cytolytic activity against 721.221-HLA-A*0201 target cells (human ILT2 on cells): 0.13 nM
EC50, NKL cytolytic activity against 721.221-HLA-G target cells (human ILT2 on cells): 2.4 nM
percent CD137+ NK cells, ADCC assay with CAL-27 cells and anti-EGFR antibody (human ILT2 on cells): 1.8 fold
EC50, GM-CSF secretion of LPS-stimulated human PBMC (human ILT4 on cells [6]): 1.5 nM
EC50, TNFalpha secretion of LPS-stimulated human PBMC (human ILT4 on cells [6]): 0.76 nM
Kd (soluble human ILT4-ECD [7]): 0.75 nM
koff (soluble human ILT4-ECD [7]): 0.00027 s⁻¹
kon (soluble human ILT4-ECD [7]): 360000 M⁻¹ s⁻¹
Kd (soluble human ILT2-ECD [8]): 3 nM
koff (soluble human ILT2-ECD [8]): 0.00025 s⁻¹
kon (soluble human ILT2-ECD [8]): 85000 M⁻¹ s⁻¹
IC50 (read off the curve) (soluble human ILT4-ECD [9]): ~9 nM
IC50 (Human ILT4-Fc): 9.4 nM
IC50 (Human ILT2-Fc): 10 nM
B1: humanized anti-ILT2/ILT4 antibody Hz73D1.v1 (antibody, human IgG1, kappa, N297G, V domains shown)
VH: QVQLVQSGAEVKKPGASVKVSCKASGYTFTDYYINWVRQAPGQGLEWMGNVNPNDGGTTYNQKFKGRVTMTTDTSTSTAYMELRSLRSDDTAVYYCARREIYFYGTIYYYAMDYWGQGTLVTVSS
VL: DIQLTQSPSFLSASVGDRVTITCRASESVDYYGNSFMYWYQQKPGKAPKLLIYFASNLESGVPSRFSGSGSGTEFTLTISSLQPEDFATYYCQQNNEDPWTFGGGTKVEIKR
notes: Human IgG1 constant region with G at position 297, human kappa; also called Hz73D1.vi

Reference: patent publication US20240025997A1 (NGM BIOPHARMACEUTICALS, published 2024)
